Test results: US20240417462A1 (SHANGHAI CELGEN BIO PHARMACEUTICAL, published 2024)
Residue numbers refer to the chain shown, from its start. “And” between values parts separate entries of the source, which are not always exact repeats. Equal entries are not always repeated.

T1: recombinant human TIGIT (Human TIGIT His, Sino Biological, 10917-H08H) (human, UniProt Q495A1 22-138)
T1 construct: range 1-138; bought; also called hTIGIT
T1 sequence (looked up): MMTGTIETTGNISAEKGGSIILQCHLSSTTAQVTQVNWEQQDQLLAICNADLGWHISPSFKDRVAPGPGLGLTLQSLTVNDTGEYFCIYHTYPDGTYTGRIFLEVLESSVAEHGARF

T2: full-length human TIGIT expressed on CHO-K cell membrane (CHO-K-TIGIT) (human, UniProt Q495A1 22-244)
T2 construct: whole, on cells; also called CHO-TIGIT; membrane TIGIT
T2 sequence (looked up): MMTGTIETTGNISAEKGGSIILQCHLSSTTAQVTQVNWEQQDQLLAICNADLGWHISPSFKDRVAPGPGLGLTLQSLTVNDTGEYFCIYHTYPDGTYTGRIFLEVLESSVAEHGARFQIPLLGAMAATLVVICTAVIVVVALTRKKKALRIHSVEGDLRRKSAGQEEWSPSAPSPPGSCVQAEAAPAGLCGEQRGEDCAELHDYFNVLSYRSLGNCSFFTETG

B1: humanized anti-human TIGIT monoclonal antibody P03479 (antibody, V domains shown)
VH: EVQVVESGGGLVKPGGSLRLSCAASGFTFSTYAMSWVRQAPGKGLEWVAEISSGGSHTFYADTVKGRFTISRDNAKNTLYLQMNSLRAEDTAVYYCARKTLDYYALDYWGQGTTVTVSS
VL: DVQITQSPSYLSASVGDRVTINCRASKSISKYLAWYQQKPGKAPKLLIYSGSRLQSGIPSRFSGSGYGTDFTLTISSLQPEDFATYYCQQHNEYPWTFGGGTKLEIK
B2: anti-human TIGIT human mouse chimeric monoclonal antibody 7103-06 (hFc) (antibody, V domains shown)
VH: EEQLVESGGGLVKPGGTLKLSCAASGFTFSTYAMSWVRQSPEKRLEWVAEISSGGSYTYYSDTVTGRFTISRDNAKNTLYLEMSSLRSEDTAMYYCARKTLDYYALDYWGHGTSVTVSS
VL: DVQITQSPSYLAASPGETITINCRANKTISKYLAWYQEKPGKTNKLLIYSGSRLQSGIPSKFSGSGYGTDFTLTISSLEPEDFAMYYCQQHNEYPWTFGGGTKLEIK
B3: humanized anti-human TIGIT monoclonal antibody P03490 (antibody, V domains shown)
VH: QVQLVQSGAEVKKPGASVKLSCKASGYTFISYNIYWVRQAPGQGLEWIGGVNPSNGNTNFNENFKSRATLTVDKSSSTAYMELSRLRSDDTAVYFCTRGNYYGYEFAYWGQGTTVTVSS
VL: DIQMTQSPSSLSASVGDRVTITCKASQHVSTAVAWYQQKPGKAPKLLIYSPSYRYTGVPSRFSGSGSGTDFTFTISSLQPEDIATYYCQQHYSTPWTFGGGTKLEIK
B4: humanized anti-human TIGIT monoclonal antibody P03491 (antibody, V domains shown)
VH: B3 VH with L20V, A68V, S76I, F95Y
VL: B3 VL
B5: humanized anti-human TIGIT monoclonal antibody P03493 (antibody, V domains shown)
VH: B3 VH with L20V, I48M, K65Q, S66G, A68V, L70M, K74T, S76I, F95Y
VL: B3 VL
B6: humanized anti-human TIGIT monoclonal antibody P03492 (antibody, V domains shown)
VH: B3 VH with L20V, S66G, A68V, K74T, S76I, F95Y
VL: B3 VL
B7: anti-human TIGIT human mouse chimeric monoclonal antibody 7103-01 (hFc) (antibody, V domains shown)
VH: QVQLQQPGAELVKPGASVKLSCKASGYTFISYNIYWVKQRPGQGLEWIGGVNPSNGNTNFNENFKSKATLTVDKSSSTAYMQLSSLTSDDSAVYFCTRGNYYGYEFAYWGQGTLVTVSA
VL: DIVMTQSHKFMSTSVGDRVSITCKASQHVSTAVAWYQQKPGQSPKLLIYSPSYRYTGVPDRFTGSGSGTDFTFTISSVQAEDLAVYYCQQHYSTPWTFGGGTKLEIK
notes: also called 7301-01 (hFc)
B8: anti-human TIGIT human mouse chimeric monoclonal antibody 7103-04 (hFc) (antibody, V domains shown)
VH: VQLQESGAELVKPGASVKLSCRASGYTFTDYFVYWVKQRPGQGLEWIGGINPSNGGATFNEKFKNKATLTVDTSSSTAYMQLSSLTSEDSAIYYCTRGNFYGYEFAYWGQGTLVTVSA
VL: B7 VL with M11I, A34V, S93I
B9: anti-human TIGIT human mouse chimeric monoclonal antibody 7103-03 (hFc) (antibody, V domains shown)
VH: EVQLQQSGPELVKPGASVKISCKTSGYTFTEYTMHWVKQSHGKSLEWIGGINPNNGGTSYNQKFKGKATLTVDKSSSTAYMELRSLTSEDSAVYYCARGAYYRYDFDYWGQGTTLTVSS
VL: B7 VL with H28D, S30R, A34V, P51A
B10: humanized anti-human TIGIT monoclonal antibody P04667 (antibody, V domains shown)
VH: B1 VH with G42E, K43Q, G44R
VL: B1 VL with V2I, I4M, Y10S, L11V, D17E, R18T, V19I, N22T, I58V, Y67S
B11: humanized anti-human TIGIT monoclonal antibody P04666 (antibody, V domains shown)
VH: B1 VH with G42E, K43Q, G44R
VL: B1 VL with Y10S, L11V, D17E, R18T, V19I, I58V, Y67S
B12: humanized anti-human TIGIT monoclonal antibody P04662 (antibody, V domains shown)
VH: B1 VH with G42E, K43Q, G44R, A61S, K65T
VL: B1 VL with Y10S, L11V, I58V, Y67S
B13: humanized anti-human TIGIT monoclonal antibody P04663 (antibody, V domains shown)
VH: B1 VH with G42E, K43Q, G44R
VL: B1 VL with Y10S, L11V, I58V, Y67S
B14: humanized anti-human TIGIT monoclonal antibody P04665 (antibody, V domains shown)
VH: B1 VH with G42E, K43Q, G44R, A61S, K65T
VL: B1 VL with V2I, I4M, Y10S, L11V, D17E, R18T, V19I, N22T, I58V, Y67S

Biological target: T1, recombinant human TIGIT (Human TIGIT …)
Assay: ELISA, coated human TIGIT-His

EC50 [pM] | Binder
85.8 | B1
554 | B2
501 | B3
471 | B4
444 | B5
463 | B6
499 | B7
554 | B8
380 | B9

Biological target: T2, full-length human TIGIT expressed on …
Assay: flow cytometry, CHO-TIGIT cells

EC50 [pM] | Binder
963 | B1
873 | B2
557 | B5
437 | B6
1080 | B7
867 | B8
596 | B9

Biological target: T1, recombinant human TIGIT (Human TIGIT …)
Assay: competition ELISA, coated TIGIT-His, CD155-mFC as competitor
Description: Antigen TIGIT (Human TIGIT (His), Sino Biological, 10917-H08H) was diluted with pH 9.6 of NaHCO₃ solution into 1 μg/mL, 50 μL per well was added to a 96-well ELISA plate, and placed overnight at 4° C. in a refrigerator. The next day, after washing with PBS twice, plate was blocked with 3% BSA (100 μL per well) by incubating at 37° C. for 1.5 h, and washed 4 times with PBST.

IC50 [pM] | Binder
2030 | B2
4030 | B7
3300 | B8
1460 | B9

Biological target: T1, recombinant human TIGIT (Human TIGIT …)
Assay: competition ELISA on recombinant human TIGIT, CD155 as competitor

IC50 [pM] | Binder
714 | B1
631 | B10
127 | B11
630 | B12
594 | B13

Biological target: T1, recombinant human TIGIT (Human TIGIT …)
Assay: BLI, antibody captured on anti-human Fc probe, TIGIT-His in solution
Description: The dissociation constant (Kd) of the human mouse chimeric TIGIT monoclonal antibody was detected by using a GATORS (ProbeLife) detection instrument and an HFC (LOT #2007065 Tray 2), Human antibody Capture probe. The human mouse chimeric TIGIT monoclonal antibody was diluted to 30 nM in a binding buffer (Q buffer [PBS (10 mM PH7.4)+0.02% Tween 20+0.2% BSA]). The recombinant human TIGIT protein was diluted in Q buffer in a 2-fold gradient to different concentrations varying in the range of 40 nM to 10 nM. A kinetic correlation determination was initiated by placing an antibody capture sensor in the continuously diluted antigen solution described above. Octet Data Acquisition software was opened and New Kinetics Experiment-Basic Kinetics mode was selected.

Kd [pM] | koff [s⁻¹] | kon [M⁻¹ s⁻¹] | Binder
1290 | 0.00139 | 1.07e+06 | B2
574 | 0.000405 | 706000 | B7
661 | 0.000558 | 845000 | B8
1140 | 0.00091 | 801000 | B9

Biological target: T1, recombinant human TIGIT (Human TIGIT …)
Assay: as above
Remark: another data set of the same source

Kd [pM] | koff [s⁻¹] | kon [M⁻¹ s⁻¹] | Binder
1270 | 0.000664 | 522000 | B3
1880 | 0.00095 | 506000 | B4
1120 | 0.000513 | 458000 | B5
1490 | 0.000781 | 525000 | B6
1730 | 0.000951 | 549000 | B7

Biological target: T1, recombinant human TIGIT (Human TIGIT …)
Assay: as above
Remark: another data set of the same source

Kd [pM] | koff [s⁻¹] | kon [M⁻¹ s⁻¹] | Binder
8430 | 0.00495 | 587000 | B1
4200 | 0.00565 | 1.35e+06 | B10
2190 | 0.00347 | 1.59e+06 | B11
2400 | 0.0031 | 1.29e+06 | B12
5580 | 0.00583 | 1.04e+06 | B14
2000 | 0.00307 | 1.53e+06 | B13

Biological target: T1, recombinant human TIGIT (Human TIGIT …)
Assay: ELISA, recombinant human TIGIT (His) coated, anti-human-Fc-AP, OD405/490
Description: (§1) Antigen hTIGIT (Human TIGIT (His), Sino Biological, 10917-H08H) was diluted into 1 μg/mL with a NaHCO₃ solution of pH 9.6, 50 μl per well was added to a 96-well ELISA plate, and placed overnight in refrigerator at 4° C.
(§2) In order to determine whether the humanized TIGIT monoclonal antibody of the present disclosure could bind to the recombinant human TIGIT protein, in vitro testing was performed. Murine antibodies and Tiragolumab (Tira) were used as positive controls. The experimental method was the same as in Example 3.1.

EC50 [µg/mL] | Binder
0.0749 | B3
0.0702 | B4
0.0662 | B5
0.0692 | B6

Biological target: T1, recombinant human TIGIT (Human TIGIT …)
Assay: as above
Remark: another data set of the same source
Description: as §1, §2

EC50 | Binder
0.0125 µg/mL and 0.0836 nM | B10
0.0137 µg/mL and 0.0915 nM | B11
0.0063 µg/mL and 0.0419 nM | B12
0.0136 µg/mL and 0.0913 nM | B14
0.0049 µg/mL and 0.033 nM | B13

Biological target: T1, recombinant human TIGIT (Human TIGIT …)
Assay: competition ELISA, human TIGIT (His) coated, antibody titrated against fixed CD155, bound CD155 detected, OD450/655

IC50 | Binder
0.109 µg/mL and 0.728 nM | B1
0.094 µg/mL | B10
0.019 µg/mL | B11
0.094 µg/mL | B12
0.089 µg/mL | B13
